Experimental data as given in publication PMC9036128, “An anti-ANGPTL3/8 antibody decreases circulating triglycerides by binding to a LPL-inhibitory leucine zipper-like motif” (Journal of Lipid Research, 2022).

B1: ANGPTL3 cotransfected with ANGPTL8 and the anti-ANGPTL3/8 antibody Fab in CHO cells (natural protein, UniProt Q9Y5C1 17-460, looked up)
chain: SRIDQDNSSFDSLSPEPKSRFAMLDDVKILANGLLQLGHGLKDFVHKTKGQINDIFQKLNIFDQSFYDLSLQTSEIKEEEKELRRTTYKLQVKNEEVKNMSLELNSKLESLLEEKILLQQKVKYLEEQLTNLIQNQPETPEHPEVTSLKTFVEKQDNSIKDLLQTVEDQYKQLNQQHSQIKEIENQLRRTSIQEPTEISLSSKPRAPRTTPFLQLNEIRNVKHDGIPAECTTIYNRGEHTSGMYAIRPSNSQVFHVYCDVISGSPWTLIQHRIDGSQNFNETWENYKYGFGRLDGEFWLGLEKIYSIVKQSNYVLRIELEDWKDNKHYIEYSFYLGNHETNYTLHLVAITGNVPNAIPENKDLVFSTWDHKAKGHFNCPEGYSGGWWWHDECGENNLNGKYNKPRAKSKPERRRGLSWKSQNGRLYSIKSTKMLIHPTDSESFE
notes: angiopoietin-like protein 3 (ANGPTL3); Used only for negative stain TEM; source: CHO cells, cotransfected with ANGPTL8 and an anti-ANGPTL3/8 antibody Fab
B2: human ANGPTL8 as it stands in the ANGPTL3/8 complex (HSA fusion partner removed) (natural protein, UniProt Q6UXH0 22-198, looked up)
chain: APMGGPELAQHEELTLLFHGTLQLGQALNGVYRTTEGRLTKARNSLGLYGRTIELLGQEVSRGRDAAQELRASLLETQMEEDILQLQAEATAEVLGEVAQAQKVLRDSVQRLEVQLRSAWLGPAYREFEVLKAHADKQSHILWALTGHVQRQRREMVAQQHRLRQIQERLHTAALPA
notes: angiopoietin-like protein 8 (ANGPTL8), human; 198-amino acid protein; same expression construct as HIS-HSA-ANGPTL8; also called ANGPTL8 complexed with ANGPTL3; source: part of the ANGPTL3/8 complex generated as previously described (22, 44); HSA fusion partner removed by proteolysis; not shown: His, N-terminal, cleaved; HSA, N-terminal, cleaved

Tests used:
[1] = biological target: T1, ANGPTL8 cotransfected with ANGPTL3 and the anti-ANGPTL3/8 antibody Fab in CHO cells (UniProt Q6UXH0 22-198); assay: negative stain transmission electron microscopy; ANGPTL3, ANGPTL8 and anti-ANGPTL3/8 antibody Fab cotransfected in CHO cells; sample diluted 100-fold into TBS, uranyl formate stain; 2D class averaging in three rounds
T1 construct: angiopoietin-like protein 8 (ANGPTL8); Used only for negative stain TEM; source: CHO cells, cotransfected with ANGPTL3 and an anti-ANGPTL3/8 antibody Fab
T1 sequence (looked up): B2 chain

[2] = biological target: the molecule itself; assay: as above
human ANGPTL3 = biological target: T2, human ANGPTL3 (human, UniProt Q9Y5C1 17-460); assay: HDX-MS; purified ANGPTL3/8 complex (12 uM) against ANGPTL3 alone (15 uM) and ANGPTL8 alone (15 uM); pH 7.4, 10 mM sodium phosphate, 150 mM NaCl, 15 C; 10 s, 2 min, 10 min, 60 min; triplicate; details: both partners purified
T2 construct: angiopoietin-like protein 3 (ANGPTL3), human; 460-amino acid protein, CCD 17-210, linker, FLD 241-460; also called free ANGPTL3; ANGPTL3 alone; source: generated as previously described (22, 44)
T2 sequence (looked up): B1 chain

Binder	stoichiometry N [1] [ANGPTL3 per ANGPTL8]	stoichiometry N [2]	binding result (human ANGPTL3)
B1	3	3	
B2			binds
